These results are taken from patent publication US20220056087A1 (GLIKNIK, published 2022).

In general, Kd refers to the constant that tells how readily two partners part at equilibrium. As usually defined, the kon is a measure of how fast the partners come together. Low values mean slow association, high ones fast association.

First the molecules themselves.
T1: mouse SIGN-R1 (immobilized on CM4 chip) (mouse, UniProt Q8CJ91 74-325, limits assumed)
T1 sequence (looked up): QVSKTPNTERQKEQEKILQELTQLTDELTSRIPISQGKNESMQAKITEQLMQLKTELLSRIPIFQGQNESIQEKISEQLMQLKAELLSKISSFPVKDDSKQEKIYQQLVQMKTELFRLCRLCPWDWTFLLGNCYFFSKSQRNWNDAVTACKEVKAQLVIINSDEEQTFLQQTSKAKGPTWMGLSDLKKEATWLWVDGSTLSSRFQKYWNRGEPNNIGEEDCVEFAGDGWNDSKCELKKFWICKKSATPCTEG

B1: M028 stradomer (Fc fusion)
chain: SIKQIEDKIEEILSKIYHIENEIARIKKLIGERGEPRGPTIKPCPPCKCPAPNLLGGPSVFIFPPKIKDVLMISLSPIVTCVVVDVSEDDPDVQISWFVNNVEVHTAQTQTHREDYNSTLRVVSALPIQHQDWMSGKEFKCKVNNKDLPAPIERTISKPKGSVRAPQVYVLPPPEEEMTKKQVTLTCMVTDFMPEDIYVEWTNNGKTELNYKNTEPVLDSDGSYFMYSKLRVEKKNWVERNSYSCSVVHEGLHNHHTTKSFSRTPGK
notes: Murine counterpart of G028 (N-terminal isoleucine zipper); The entry may include a leader
B2: Cynomolgus FcγRIIIa (receptor, UniProt Q8SPW2 17-208, looked up)
chain: GMRAEDLPKAVVFLEPQWYRVLEKDRVTLKCQGAYSPEDNSTRWFHNESLISSQTSSYFIAAARVNNSGEYRCQTSLSTLSDPVQLEVHIGWLLLQAPRWVFKEEESIHLRCHSWKNTLLHKVTYLQNGKGRKYFHQNSDFYIPKATLKDSGSYFCRGLIGSKNVSSETVNITITQDLAVSSISSFFPPGYQ
B3: mouse IgG2a Fc homodimers (other, UniProt P01863 98-330, looked up)
chain: EPRGPTIKPCPPCKCPAPNLLGGPSVFIFPPKIKDVLMISLSPIVTCVVVDVSEDDPDVQISWFVNNVEVHTAQTQTHREDYNSTLRVVSALPIQHQDWMSGKEFKCKVNNKDLPAPIERTISKPKGSVRAPQVYVLPPPEEEMTKKQVTLTCMVTDFMPEDIYVEWTNNGKTELNYKNTEPVLDSDGSYFMYSKLRVEKKNWVERNSYSCSVVHEGLHNHHTTKSFSRTPGK
notes: domain: Fc; also called IgG2a controls; IgG2a Fc control
B4: His-tagged human FcγRIIb (R&D system cat #1875-CD) (receptor, UniProt P31994 46-217, looked up)
chain: APPKAVLKLEPQWINVLQEDSVTLTCRGTHSPESDSIQWFHNGNLIPTHTQPSYRFKANNNDSGEYTCQTGQTSLSDPVHLTVLSEWLVLQTPHLEFQEGETIVLRCHSWKDKPLVKVTFFQNGKSKKFSRSDPNFSIPQANHSHSGDYHCTGNIGYTLYSSKPVTITVQAP
notes: Bought protein
B5: M045c stradomer (Fc fusion)
chain: DEPRGPTIKPCPPCKCPAPNLLGGPSVFIFPPKIKDVLMISLSPIVTCVVVDVSEDDPDVQISWFVNNVEVHTAQTQTHREDYNSTLRVVSALPIQHQDWMSGKEFKCKVNNKDLPAPIERTISKPKGSVRAPQVYVLPPPEEEMTKKQVTLTCMVTDFMPEDIYVEWTNNGKTELNYKNTEPVLDSDGSYFMYSKLRVEKKNWVERNSYSCSVVHEGLHNHHTTKSFSRTPGKERKCCVECPPCP
notes: Murine counterpart of G045c; The entry may include a leader that is cleaved from the secreted protein; Mix of homodimers and multimers
B6: M045 F2 (Fc fusion)
stradomer monomer: B5 chain
notes: also called lower molecular weight multimer fraction of M045
B7: M045 F1 (highest molecular weight multimer fraction of M045c) (Fc fusion)
chain: B5 chain
notes: The entry may include a leader; also called Fraction 1; M045 Fraction 1
B8: M045 F3 (Fc fusion)
stradomer monomer: B5 chain
notes: also called homodimer fraction of M045
B9: mouse FcγRIIB (immobilized on CM4 chip) (receptor, UniProt P08101 30-207, looked up)
chain: THDLPKAVVKLEPPWIQVLKEDTVTLTCEGTHNPGNSSTQWFHNGRSIRSQVQASYTFKATVNDSGEYRCQMEQTRLSDPVDLGVISDWLLLQTPQLVFLEGETITLRCHSWRNKLLNRISFFHNEKSVRYHHYSSNFSIPKANHSHSGDYYCKGSLGRTLHQSKPVTITVQGPKSSR
notes: also called mouse FcγR2b
B10: His-tagged mouse FcγRII (R&D system cat #1460-CD) (receptor, UniProt P08101 30-207, looked up)
chain: B9 chain
notes: Bought protein; also called Mouse FcγRIIb; Mouse FcyRII
B11: mouse FcγRIIIA (immobilized on CM4 chip) (receptor, UniProt P08508 31-215, looked up)
chain: ALPKAVVKLDPPWIQVLKEDMVTLMCEGTHNPGNSSTQWFHNGRSIRSQVQASYTFKATVNDSGEYRCQMEQTRLSDPVDLGVISDWLLLQTPQRVFLEGETITLRCHSWRNKLLNRISFFHNEKSVRYHHYKSNFSIPKANHSHSGDYYCKGSLGSTQHQSKPVTITVQDPATTSSISLVWYHT
notes: also called mouse FcγR3A
B12: His-tagged mouse FcγRIII (R&D system cat #1960) (receptor, UniProt P08508 31-215, looked up)
chain: B11 chain
notes: Bought protein; also called Mouse FcyRIII
B13: M019 stradomer (Fc fusion)
chain: ERKCCVECPPCPEPRGPTIKPCPPCKCPAPNLLGGPSVFIFPPKIKDVLMISLSPIVTCVVVDVSEDDPDVQISWFVNNVEVHTAQTQTHREDYNSTLRVVSALPIQHQDWMSGKEFKCKVNNKDLPAPIERTISKPKGSVRAPQVYVLPPPEEEMTKKQVTLTCMVTDFMPEDIYVEWTNNGKTELNYKNTEPVLDSDGSYFMYSKLRVEKKNWVERNSYSCSVVHEGLHNHHTTKSFSRTPGK
notes: Murine counterpart of G019 (N-terminal IgG2 hinge multimerization domain); The entry may include a leader
B14: Cynomolgus FcγRIIb (receptor)
chain: TPAAPPKAVLKLEPPWINVLREDSVTLTCGGAHSPDSDSTQWFHNGNLIPTHTQPSYRFKANNNDSGEYRCQTGRTSLSDPVHLTVLSEWLALQTPHLEFREGETIMLRCHSWKDKPLIKVTFFQNGKSKKFSHMDPNFSIPQANHSHSGDYHCTGNIGYTPYSSKPVTITVQVP

Experiment [1] addresses T1, mouse SIGN-R1 (immobilized on CM4 chip). Nature of the experiment: SPR (Biacore) as in Example 4, SIGN-R1 on the chip. As to the method:
(§1) FcγRIIIA, FcγRIIB and SIGN-R1 receptors were immobilized to a CM4 chip using amine immobilization to 560, 500, and 1000RU, respectively to compensate for protein size.
(§2) Regeneration was achieved by a 10 sec injection of 1M MgCl at 100 ul/min, followed by a brief wash with running buffer. KDs were calculated using T100 evaluation software.
(§3) M045F was first gel fractionated using an AktaXpress protein purification system and a GE HiLoad 16/60 Superdex 200 prep grade column.

The target of experiment [2] is B11. The experiment can be described thus: SPR (Biacore), receptor amine-coupled to a CM4 chip, analyte 500 nM to 1.9 nM; panel 'Mse FcR3A'. As for the experimental part:
as §1, §2
(In general: Surface plasmon resonance follows binding to a sensor surface in real time, without labels.)

In a further experiment the target is T2, G001 (native IgG1 Fc) (human, UniProt P01857-1 99-330 = IgG part).
T2 construct: domain: Fc; also called IgG1 Fc control; homodimeric monomer of IgG1 Fc
The experiment can be described thus: BLI (Octet 96 Red), receptor on sensor, G001 in solution. As to the method:
For binding analysis of mouse protein, His-tagged mouse FcγRII (R&D system cat #1460-CD) and FcγRIII R&D system cat #1960) were separately loaded on anti-penta-His Biosensors (ForteBio cat #18-5077) at 10 ug/ml in 1× kinetic analysis buffer (ForteBio cat #18-5032). For binding analysis of human protein, His-tagged human FcγRIIb (R&D system cat #1875-CD) and FcγRIIIa R&D system cat #4325-Fc) were separately loaded on anti-penta-His Biosensors (ForteBio cat #18-5077) at 10 ug/ml in 1× kinetic analysis buffer (ForteBio cat #18-5032). Following sensor tip loading protein association was measured by transfer of tips to preparations of either monomeric fraction (over a range of concentrations) or the multimeric fractions (over a range of concentrations) in 1× kinetics analysis buffer and dissociation was measured by transfer of sensor tips to 1× kinetics buffer. Analysis was as described (Data Analysis User Guide 6.4ForteBio). Analysis was standardized as described above assigning a MW of 50 kD to homodimers and 150 kD to all other protein preparations.
A general note: BLI is a label-free optical method that tracks binding on a fibre tip over time.

Experiment [3] has as its target T1, mouse SIGN-R1 (immobilized on CM4 chip). Nature of the experiment: SPR (Biacore) as in Example 4, SIGN-R1 on the chip; the sheet itself says the value cannot be accurately calculated; traces flat. As to the method: as §1, §2, §3
Experiment [4] has the same target. Nature of the experiment: SPR (Biacore) as in Example 4, SIGN-R1 on the chip; the sheet itself says the value cannot be accurately calculated; traces nearly flat. As to the method: as §1, §2, §3
The target of experiment [5] is B3. Nature of the experiment: SPR (Biacore), receptor amine-coupled to a CM4 chip; panel 'Mse FcR2B'. As to the method:
as §1, §2

The target of experiment [6] is B3. The experiment can be described thus: SPR (Biacore), receptor amine-coupled to a CM4 chip; panel 'Mse FcR3A'. As to the method:
as §1, §2

The target of experiment [7] is T1, mouse SIGN-R1 (immobilized on CM4 chip). The experiment can be described thus: SPR (Biacore), receptor amine-coupled to a CM4 chip, analyte 500 nM to 1.9 nM; panel 'Mse SIGN-R1'. As for the experimental part:
as §1, §2

Experiment [8] deals with B9. Nature of the experiment: SPR (Biacore), receptor amine-coupled to a CM4 chip, analyte 500 nM to 1.9 nM; panel 'Mse FcR2B'. As to the method:
as §1, §2

Regarding B1, the Kd in [1] amounted to 638 nM; in experiment [2], 18.7 nM.

For B2, the kon in the experiment with G001 (native IgG1 Fc) is 124000 M⁻¹ s⁻¹.

As for B3, the Kd in experiment [3] was 132 nM.

For the molecule B4, the Kd with G001 (native IgG1 Fc) is 1310 nM.

The molecule B5 yielded a Kd in experiment [1] of 334 nM.

Consider B6, for which the Kd in experiment [1] worked out at 91.2 nM.

On to B7, for which the affinity in [1], expressed as Kd, was 90.9 nM.

Turning to B8, the Kd in experiment [4] was 11000 nM.

B9: binding in experiment [5] was put at a Kd of 642 nM.

Molecule B10 showed a Kd with G001 (native IgG1 Fc) of 1510 nM.

As for B11, in experiment [6], the Kd amounted to 80.1 nM.

In the experiment with G001 (native IgG1 Fc), B12 registered a Kd of 4180 nM.

In the case of B13, in [7], the binding result is “binds”. Besides, the Kd in experiment [8] worked out at 45.3 nM.

B14 came in with a Kd in the experiment with G001 (native IgG1 Fc) of 2040 nM.
